In general, stoichiometry N refers to a count of units in the complex or per binding partner. By pKd is commonly meant the negative decadic logarithm of the Kd, by convention in mol/L.

This is an account of results in publication PMC9568614.

pKd: −log10 of the molar value. Values joined by “and” are separate entries in the source; they are usually repeats but may differ in a detail not shown here. Equal values may be shown once.

The target of assay [1] is FcRn coupled to the FcRn Affinity Column (Roche) (UniProt P55899). Nature of the assay: FcRn-affinity chromatography; FcRn Affinity Column (Roche); antibody or fragment injected at pH 5.5 (20 mM MES, 150 mM NaCl), pH gradient to pH 8.8 (20 mM Tris-HCl, 150 mM NaCl); elution pH read.
Assay [2] addresses Fc-MST-HN (IgG1 Fc fragment with M252Y, S254T, T256E, H433K, N434F) (human). Nature of the assay: crystal structure; Fc-MST-HN with EndoH- and thrombin-treated FcRn:beta2M, complex isolated by preparative SEC; crystals from 0.1 M sodium cacodylate pH 7.0, 293 K.
For the next assay, the target named is Fc-MST (human). Nature of the assay: ITC; 37 °C, PEAQ-ITC; as drawn in the figure FcRn:b2M titrated into the Fc (reverse setup: 6 uM in the cell, 165 uM in the syringe); fit A + B + B with 2 symmetric sites, macroscopic K (Sedphat); buffer and pH not stated; four runs for Fc-MST-HN (values averaged), one for Fc-YTE. Background: ITC needs no label: the signal is the heat of the interaction.

Assay [3] deals with recombinant human FcRn (FcRn alpha-chain with C-terminal BirA 10x-Histidine tag, with beta-2-microglobulin) (human) (UniProt P55899). Nature of the assay: SPR; pH 7.4. Background: In SPR one partner is held on a chip, and binding of the other changes the refractive index at the surface.
For assay [4] the target is unchanged. Nature of the assay: SPR.
The target is the same in assay [5]. Nature of the assay: SPR; pH 6.0.
In assay [6] the target is Fc-MST-HN (human). Nature of the assay: SPR; IBIS MX96; IgG or Fc randomly coupled on a SensEye G Easy2Spot array at four spotting concentrations (60, 30, 15, 7.5 nM); monomeric human FcRn injected 0.49-1000 nM in PBS, 0.075% Tween 80, pH 7.4; equilibrium analysis, Langmuir 1:1 model; one KD for each spot (with its RU), later interpolated to Rmax = 700 RU.
For the next assay, the target named is anti-HEL IgG1-WT (human). Nature of the assay: SPR; IBIS MX96; IgG or Fc randomly coupled on a SensEye G Easy2Spot array at four spotting concentrations (60, 30, 15, 7.5 nM); monomeric human FcRn injected 0.49-1000 nM in PBS, 0.075% Tween 80, pH 6.0; equilibrium analysis, Langmuir 1:1 model; one KD for each spot (with its RU), later interpolated to Rmax = 700 RU.

For assay [7], the target named is Fc-MST-HN (human). The description is as above.
In the next assay the target is Fc-WT (human). The description is as above.
In assay [8] the target is anti-HEL IgG1-MST-HN (human). Described as above.

Take “Fc-MST-HN (IgG1 Fc fragment with M252Y, S254T, T256E, H433K, N434F) (domain or fragment)”: the elution pH in assay [1] stood at 8.7 pH. As for “Fc-WT (wild-type human IgG1 Fc fragment) (domain or fragment)”, in [1], the elution pH was 7 pH. Regarding “FcRn:beta2M (FcRn residues 1-297 with beta-2-microglobulin residues 1-119), EndoH-treated, tags removed by thrombin (from UniProt P55899 24-297; P61769 21-119) (complex)”, the stoichiometry N in assay [2] was found to be 2 FcRn per Fc. For the substance “FcRn:ß2M (recombinant extracellular domain of human FcRn in complex with beta-2-microglobulin, as used for ITC) (from UniProt P55899 24-297; P61769 21-119) (receptor)”, the pKd with Fc-MST (human) is 7.18.

“anti-HEL IgG1-MST-HN (full-size IgG1) (antibody)” returned an elution pH in assay [1] of 8.7 pH. As to “anti-HEL IgG1-MST-HN (full-size IgG1) (from UniProt P01857)”, the values for the pKd in [3] and in assay [4] were 6.05 and 7.41, respectively. On to “anti-HEL IgG1-WT (full-size IgG1) (antibody)”, for which, in assay [1], the elution pH came out at 7 pH. Take “anti-HEL IgG1-WT (full-size IgG1) (from UniProt P01857)”: in assay [4], the negative logarithm of the Kd (pKd) is 6.42.

For “anti-biotin IgG1-WT (from UniProt P01857)”, in assay [5], the negative-log Kd (pKd) is 6.70. For “recombinant human FcRn (FcRn α-chain with ß2-microglobulin) (from UniProt P55899 24-297; P61769 21-119) (receptor)”, the negative logarithm of the Kd (pKd) with Fc-MST-HN (human) [6] was 5.94 and 5.98 and 6.08; with anti-HEL IgG1-WT (human), 6.22; with Fc-MST-HN (human) [7] it was 7.43 and 7.47 and 7.49; in the assay with Fc-WT (human), 6.62 and 6.57; in [8] it was 7.43 and 7.47.
